The domain aggregation screens of Martell et al. (2025)

Test: soluble fraction after stress (log2 fold change); higher = more stays soluble; pooled small domains, quantitative proteomics
Conditions: stress: pH 4
Method in brief: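 Values are on a log2 scale, where higher means more of the domain stayed soluble after pH 4 stress. They are fold changes in the soluble amount of each domain from pooled custom libraries, measured by high-throughput quantitative proteomics. The fold change is taken to reflect aggregation propensity.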

Row | Sequence | soluble fraction (log2)
1 | HMDTINEYERNILSLITSKPGISAVQIAADTDKSIITAKRGIKTLVDGKLIEYRGSKKTGGYFLLTQS | 0.275
2 | HMETENLSPREREILEYIVKGYSYKMIAADLNIATETVRSHIKKIYKKLQVNSATEAVYKYSN | -0.424
3 | HMVSKIEAPLPGIILSVDVKEGDTVKAGDKLMVMEAMKMENAILAETNGVVKSIKVKIQDSVLQGDILAEI | -1.07
4 | HMQTMNKTNISNFEKYLNSGDVSEVIVVRNKSSVRVTLTPEALRSSEHQAVVGKNILGQENIKGPHYQFEV | 0.138
5 | HMPAQPEPYNNLARLYSAQGKLDQAASLLRAGLYTDPAYRALFDNLTRIYAEQAARSLSAALD | -0.879
6 | HMSDPELAIPRVVGLSGNDAQAALVKAGFSAVTVVTVKNSEVTSEQVTHVVPAEGAKAKASTPVTVVVSSS | 0.15
7 | HMAGSGDLNAKYLASIPAPMKAKILKAVANHYGVSISEFEEEVTDKDAEALYEYIPTRSMAVQVLRDMKG | 0.199
8 | HMNDILETISNQIRDLRVSKKITQQELAERTNLSVPYISQIENGHRNISLETFIKIVDALDIPLSDFFLP | -1.11
9 | HMKPDSEFTSQDLWQNDLAGTGSAAYRRDKMGALLGIGYGNAKRFLERLNSYGVTRSEFDEALAQLGE | 0.134
10 | HMKTAAKVLGESGGKPVTVQSGRYGPYVQLGTIRATLPKDLDQEAVTLDKALELIDAKAERSGK | -0.0034
11 | HMNVKQALLELMQRKPELTGSAIARAIGYSPAVISQYLKDGYPGDVVKLTTLIGDFIRRIDEKERS | -0.48
12 | HMPGRVITVMVNGKRVDLPFREEPYIFVDLFRYMDFDVERARGRIQLAINGKKAGYTDIIREGDSIEI | -1.02
13 | HMSHFRMLPSITEADAFLKSRSLPAGLEVREQVDAFLAQARQTLALAQEAPWLSKQEVLETLADEFVQTS | -1.25
14 | HMSAPAMTLDSIRSLLNDRDPWVVTQTVEWLVGLGPQVKTILETLTLESSDAARQAQNALDRINVRNYP | -1.08
15 | HMLKVHPRDQEENRLLLLKGERLYEESTGDTRVMIDMWLRKFEEALNSRSRENIEDARRELKEQLAELDN | -0.312
16 | HMSKSIGEALKEERRSLGLTQEQFIKGIISESFYSKVERGKNEIVAVDLLKILAANNISEEEFLSKLN | -0.168
17 | HMNLSNVVIRKVQEMILSGELQEGDKLPPEREMTQRLGIGRPALREGLKSLEMLGLVERRHGLGNFIINKV | -0.475
18 | HMINLTKVGNFISIIKLQQIWTIDELLKKVDINYDELLYLLTILSDIYSKNGEYFFDFDIDAENNKILFNN | -0.3
19 | HMNIGELINKKRTELGLTLEEVGNAVGVSKSTVKKWEDGFISNMRRDKISKLAKVLEMNPVSLITGE | -0.0212
20 | HMKTQFGTIVKQLRERKGMDQKQLGEIVGVSDKTVSSWEINRTEPKMGIVQQLADYFGVSTDYLIKG | 0.00995
21 | HMKEVKPSDFFLSKLDEDHNLIEKFNALSSFKQKEFIEYIDSAKQEKTKHDRFEKIKPILLSNIGLNDKYR | -0.102
22 | HMNSHQNELDNALTEAHTASRRLLEGTDEYLDLSSQPAYIRRLQHLLAQKYNLGSLSSGVEPNRHIRLLQ | -0.174
23 | HMAGPAGASEVANARDGDDETPLHMAARGGYPGIVRMLLAAGAKADAKSAAGLFPWNYAEDGSELHALLPR | -0.0731
24 | HMGTQKVQVVNGPINVRSGPGPTFEKIGMVEDQAVYQVVSKKDDWFQISLPGNKTAWVAGWLVKEIK | -0.0241
25 | HMKRDRLYGITIYLLNHGRTSAKTLAEYFEVSVRTIQRDMDALSMAKIPIIAYPGSDGGYEIQEGYRL | -0.37
26 | HMNVNTNTILKSLMETYPDSTVFKKAEIVSIANSLGFKKSDYSPLTSTDNRTDVRGQYDLSAVIIPMRESN | -0.11
27 | HMATAATGIINNNYVNVRSGPATTYNIVGRLDQGSSIEILGSKNDWYQIKTKQLNGWVKNDFINLQK | 0.14
28 | HMAPLATLEAGEDGSVKLPNLAGHSIREVAAALGGAKLSLIPIGSGTSWKQTPAPGAVLHSGDTVTVYF | 0.0923

Row | Sequence | soluble fraction (log2)
29 | HMQEQIVQGIVKYFDAEKQFGFIAGDDGVDRFFNAKSIQGNAVKTGDRVRFLAISHIRGPRALKISA | -0.566
30 | HMSQQMSYSDFVKAVSARQIREAQIQGDKIYATDSTGNRLTIIRLDNDQRLVDDMINNDVNIIGLEE | -0.534
31 | HMLLSYDIAEYIEKYIHEHGLQPGDRLPTERELAAQLDITRVSVRQGYKRLLDQGVIRSENGYYVNPPR | 0.0914
32 | HMEKIYLISDAAKQVNVEAHVLRYWEEELDIPAKRNELGHRYYTQEDIETFRKVKELKAQGIQLKGIKNIL | -1.07
33 | HMSNIIIYPNPTNDGLIHIKGSKFPFNYALYNLSGKLIETGKKNQIQLNDRGVYLLKIQTEGQTYFKKII | -0.754
34 | HMKISELAKKVIASGRVTQWAKHPHIYFVNGMRKVAIELDVNGVFSISMRYYPYDPADRELVENLIRGD | -0.572
35 | HMITPKQTAETLGIATSTLRRWASEFEPFLSLRTGVKRTYTTDDITTLKRVKDLFAQGLKTEQVREAL | ≥ 0.43
36 | HMGSNTLEDAYKVLGITPDATDDEVRKAYKKMVIQHHPDKVANLGEDVKKAATIKLQEINNAKEIIFKARN | 0.192
37 | HMRIQLNFSDQLLDDVMSEALKHIDRKSQEHHIEKQMDDEFMLVYIDARLIIQVIVNIINNAIKY | -0.912
38 | HMTDYVPTIGTKISKDFGSKGYFEGEVVSGPHNVTVEGDNMVVWKVQYEDGDREEMTASEIAHWKA | 0.22
39 | HMVIPATPTARRAKIAGLLADRSVRSQGELLTLLADAGIEVTQATLSRDLEALGAVKVRDGRGLVYAVPG | 0.365
40 | HMDYSWNFFIGFSVVDKVAGNLGTIEEIDDKTINTLFLVKNDDEDLIIPATEDFVEKIDAKKRILYLNLPE | -1.79
41 | HMQASPADLLSDRELEVFQLTGEWKTTRQIAQELHLSVKTIEYYREQIKRKLNLKSAAELTQHATAWVQRG | ≥ 0.43
42 | HMDLFREERRQAILDWLATAGRVSVAELSASFGVSEVTVRADLQALADRRLVVRTHGGAMMAG | -0.955
43 | HMLPDAESFSYEVPYTKGDGGTYNYEGKIKAQNADAARDEIIRQAQVYFQMNPQFTPDYPSTTITSLD | 0.0666
44 | HMASIEPLKTSIRIIWYINGEKDSETLLNTPPTAANKANAQKIADMVEQQIQMGIFNRDAVFPSSPKRQ | -0.559
45 | HMAEKVIVVADSITVGELAEKLNLPVTNLIGELFKNGIVSTINQRIDFETASIIVEELGLDVELERK | -0.96
46 | HMSASSEALKTAVRKVLLNNRMTQDRMARDAGLSGSALSQWLHGKYQGDVPALEGRLAAWLADTQAS | 0.132
47 | HMTATWLTYYRIKAGLTQKRLAELAGLNIRQVQKIENGETLAGNTTAKNLLALADALGIDPHKL | -0.381
48 | HMTWIAEIELRLMGNGAVTGAKIVKSTDLKDVDAAIYRAALEASPYPAPESGIGGRFTIKLKY | 0.015
49 | HMNIGEKIKTLRENNNISIEELAEKINDSIENILKYENNELEPTLDKKLALSIALGVTLSDLS | -0.975
50 | HMDISRMNLSQTERAVLSVLDSQPLHTEEIIASADLRAGAIHSALISLQLKGLIKQLPGNLYVK | -0.035
51 | HMDDAFLNKEMLKQALENLNEREKKLIYLRFYEGLTQKEIADRLSLSQMHVSRLLNESLNKLRRKI | -0.0579
52 | HMAVKPIDRLRSLMAESNVTDAELQKVVADKGHYAADAPIDSYSEKFISGWLIKYWSQILNLINADRTVL | -0.0558
53 | HMQERKYTVSFNTNGGSTINDQKITSGNVIISPGAPKRSGYTFVGWYYHGQPFDLNTKINQDYVLVAKWIK | 0.207
54 | HMIIVMASSKKEDVAHVVHKIEELGYKAHVIVGVERTVVAAVGDERGKERLISLEALPHVEKVFPILK | -0.167
55 | HMGRTITVGIAEDADIKDIAKMLEEKGLISDYRLFVVQELLSAQHDKIKPGIYDLSTDMKAEEMLEILAG | -1.33
